Laboratory results as given in patent publication US20240238420A1 (WUHAN UNIVERSITY, published 2024).
One block for each molecule: values may come before it.

Key:
[1] = molecular target: CD123 combined mutant R84Q-V85I (Homo sapiens (Human)) (UniProt P26951); assay: scFv-luciferase binding to transfected HEK 293T cells (FIG. 4A)
[2] = molecular target: CD123 combined mutant R84Q-V85M (Homo sapiens (Human)) (UniProt P26951); assay: as above
wild-type CD33 protein = molecular target: T1, wild-type CD33 protein (Homo sapiens (Human), UniProt P20138 18-364); assay: scFv-luciferase binding to HEK 293T cells transfected with wildtype or mutant CD33 (RLU)
T1 construct: Expressed in transfected HEK 293T cells; A flag tag is mentioned for the Western blot constructs; no signal peptide limits are stated; also called Siglec3
T1 sequence (P20138 18-364 limits assumed): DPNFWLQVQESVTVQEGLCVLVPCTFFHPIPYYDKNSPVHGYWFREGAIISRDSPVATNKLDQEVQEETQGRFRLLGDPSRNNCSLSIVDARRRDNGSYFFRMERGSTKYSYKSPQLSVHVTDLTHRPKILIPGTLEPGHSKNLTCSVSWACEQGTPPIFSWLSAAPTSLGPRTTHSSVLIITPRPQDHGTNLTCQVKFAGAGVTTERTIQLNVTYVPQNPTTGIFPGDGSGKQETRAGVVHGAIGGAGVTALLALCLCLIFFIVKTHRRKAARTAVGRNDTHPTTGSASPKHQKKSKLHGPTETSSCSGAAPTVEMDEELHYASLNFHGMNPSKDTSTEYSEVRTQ
Description: FIG. 1A-D. Determination of epitopes of CD33 that mediate the interaction by anti-CD33 scFv clone my9.6 or HM195. (A) Binding affinity of indicated CD33 mutations with anti-CD33 scFV clone my9.6. HEK 293T cells were transfected with wildtype or indicated CD33 mutant and then incubated with anti-CD33 scFV-luciferase fusion proteins, RLU: relative luminescence units. (B) Western blot of CD33 expression. HEK293T cells were transfected with flag tagged wild-type or indicated CD33 mutants. (C) Binding affinity of additional CD33 mutations. RLU: relative luminescence units (D) Western blot of CD33 expression. HEK293T cells were transfected with flag tagged wild-type or indicated CD33 mutants.
HEK 293T cells were transfected with wildtype or certain CD33 mutants and then incubated with anti-CD33 scFV-luciferase fusion proteins. The mutated residues included W22, C41, W60, I105, D112, Y116, F118, S131, and P132. The tested antibodies included my9.6 and HM195. […] FIGS. 1B and […] present Western blot images of CD33 expression from the transfected cells.

wild-type CD123 protein = molecular target: T2, wild-type CD123 protein (Homo sapiens (Human), UniProt P26951 19-378); assay: scFv-luciferase binding to HEK 293T cells transfected with wildtype or mutant CD123
T2 construct: no signal peptide limits are stated; also called alpha chain of interleukin-3 receptor
T2 sequence (P26951 19-378 limits assumed): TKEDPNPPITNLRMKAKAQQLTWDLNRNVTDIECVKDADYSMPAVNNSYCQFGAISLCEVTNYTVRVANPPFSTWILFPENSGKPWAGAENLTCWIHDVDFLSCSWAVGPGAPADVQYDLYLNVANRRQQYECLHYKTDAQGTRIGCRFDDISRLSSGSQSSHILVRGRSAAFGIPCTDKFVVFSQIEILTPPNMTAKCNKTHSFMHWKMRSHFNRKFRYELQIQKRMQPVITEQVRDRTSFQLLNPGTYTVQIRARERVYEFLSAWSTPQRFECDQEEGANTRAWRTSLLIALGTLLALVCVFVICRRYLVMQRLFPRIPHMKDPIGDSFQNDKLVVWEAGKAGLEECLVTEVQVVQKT
Description: HEK 293T cells were transfected with wildtype or indicated CD123 mutant and then incubated with anti-CD123 scFv-luciferase fusion proteins. (B) Western blot of CD123 expression. HEK293T cells were transfected with flag tagged wild-type or indicated CD123 mutants.
HEK 293T cells were transfected with wildtype or indicated CD123 mutant and then incubated with anti-CD123 scFv-luciferase fusion proteins. […] The expression of these mutants was confirmed by Western blot (FIG. 3B).

Chain of CD123 combined mutant R84Q-V85I (Homo sapiens (Human)) (P26951 19-378 R84Q/V85I limits assumed): as the sequence (P26951 19-378 limits assumed) above, with R66Q, V67I counted along it
Chain of CD123 combined mutant R84Q-V85M (Homo sapiens (Human)) (P26951 19-378 R84Q/V85M limits assumed): as the sequence (P26951 19-378 limits assumed) above, with R66Q, V67M counted along it

fold decrease of affinity (combined mutant against reference) [1]: 100 fold | fold decrease of affinity (combined mutant against reference) [2]: 100 fold
Molecule: anti-CD123 scFv clone CSL362, scFv-luciferase fusion protein

binding result (wild-type CD33 protein): binds
B1: anti-CD33 scFv clone HM195, scFv-luciferase fusion protein (scFv, V domains shown)
VH: QVQLVQSGAEVKKPGSSVKVSCKASGYTFTDYNMHWVRQAPGQGLEWIGYIYPYNGGTGYNQKFKSKATITADESTNTAYMELSSLRSEDTAVYYCARGRPAMDYWGQGTLVTVSS
VL: DIQMTQSPSSLSASVGDRVTITCRASESVDNYGISFMNWFQQKPGKAPKLLIYAASNQGSGVPSRFSGSGSGTDFTLTISSLQPDDFATYYCQQSKEVPWTFGQGTKVEIK
notes: Tested as an scFv-luciferase fusion protein

binding result (wild-type CD123 protein): binds
B2: anti-CD123 scFv clone 32716, scFv-luciferase fusion protein (scFv, V domains shown)
VH: QIQLVQSGPELKKPGETVKISCKASGYIFTNYGMNWVKQAPGKSFKWMGWINTYTGESTYSADFKGRFAFSLETSASTAYLHINDLKNEDTATYFCARSGGYDPMDYWGQGTSVTVSS
VL: DIVLTQSPASLAVSLGQRATISCRASESVDNYGNTFMHWYQQKPGQPPKLLIYRASNLESGIPARFSGSGSRTDFTLTINPVEADDVATYYCQQSNEDPPTFGAGTKLELK
